# Assays:
# Type in all cases: cell-based, human
# TACE = TACE activity assay in MSC lysates; conditions: EpEX-stimulated MSCs
# Procedure: FIG. 9. EpEX induces the phosphorylation and activity of TACE and γ-secretase. MSCs were stimulated by EpEX for the indicated times, and the activity of TACE and γ-secretase were detected. MSCs were stimulated by EpEX (3 μg/mL) for the indicated times. Western blot analysis was performed to detect the phosphorylation of TACE and Presenilin 2.
# ADAM17 activity was measured using the InnoZyme ADAM17 activity kit (Calbiochem). In brief, cell lysates were harvested and loaded into a TACE antibody-coated plate. After 1 h incubation, the lysate was removed and the plate was washed twice. Substrate was added into each well for 5 h at 37° C. After incubation, the fluorescence signal of the reaction product was detected at excitation of 324 nm and emission of 405 nm. For the detection of γ-secretase activity, cell lysates were extracted and 500 μg protein was used. γ-secretase activity was detected by γ-secretase substrate (35 μM).
# RUNX2 = RUNX2 gene expression by qPCR during osteo-induction; conditions: EpEX in osteogenetic medium
# Procedure: Calcium precipitation was measured by Alizarin Red S (ARS) staining to probe the efficiency of osteogenesis. […] Quantification of osteogenesis, as measured by ARS staining, is shown for each group. MSCs were induced by osteogenetic medium and treated with EpEX at indicated doses. The gene expression of RUNX2 was examined by qPCR. […] ARS staining was performed to check the efficiency of osteogenesis. MSCs were pretreated with let-7 inhibitor and then treated with EpEX for 14 days during osteo-induction. ARS staining was performed to check the efficiency of osteogenesis. […] RUNX2 gene expression was measured by qPCR. MSCs were pretreated with let-7 inhibitor and induced by EpEX. RUNX2 gene expression was examined by qPCR. […] Upon EpEX stimulation, phosphorylation of EGFR-STAT3 signaling is induced and subsequently upregulates the level of Lin28 which inhibits let-7. […]
# Total RNA was extracted using TRI reagent (Invitrogen, CA, USA), and 5 μg of total RNA was reverse transcribed using oligo (dT) primer (Fermentas, Glen Burnie, MD, USA) with SuperScript III reverse transcriptase (Invitrogen). Quantitative real time RT-PCR (qPCR) was performed on cDNA using the Light Cycler 480 SYBR Green I Master kit (Roche Applied Science, Indianapolis, IN) and the LightCycler480 System (Roche Applied Science). […]
# STAT3 (Tyr705) = assay: STAT3 phosphorylation by Western blotting; conditions: MSCs treated with the substance
# Procedure: After treatment, the protein levels of total STAT3 and phospho-STAT3 (Tyr705) were examined by Western blotting. […] Cell cycle progression was investigated by flow cytometry with PI staining. Fraction of cells in each phase (G1, S, G2/M) of the cell cycle was evaluated. Cells expressing STAT3 shRNA were treated with EpEX for 18 h, after which cell cycle progression was investigated by flow cytometry with PI staining. Fraction of cells in each phase (G1, S, G2/M) of the cell cycle was evaluated. […] The protein levels of cell cycle regulators (cyclin D1, cyclin D2, cyclin E1, CDK4 and CDK9) and pluripotency factors (Oct4, Sox2, c-Myc, Lin28) were examined by Western blotting. MSCs expressing STAT3 shRNA or shLuc were stimulated with EpEX. After treatment, the protein levels of cell cycle regulators (cyclin D1, cyclin D2, cyclin E1, CDK4 and CDK9) and pluripotency factors (Oct4, Sox2, c-Myc, and Lin 28) were examined by Western blotting. […] After treatment, the gene expression of pluripotency factors (Oct4, Sox2, c-Myc, Lin28 and EpCAM) was examined by qPCR.
# FIG. 8. EpEX and EGF induce the phosphorylation of EGFR and STAT3. […] The phosphorylation of EGFR (Tyr845) and STAT3 (Tyr705) were examined by Western blotting with specific antibodies.
# Western blotting was performed as previously described (Takahashi et al., 2003). […]
molecule,measurement,setting,value
"EpEX: extracellular domain of human EpCAM, 265 amino acids in length (SEQ ID NO: 2) (protein, listed as Homo sapiens) MAPPQVLAFGLLLAAATATFAAAQEECVCENYKLAVNCFVNNNRQCQCTSVGAQNTVICSKLAAKCLVMKAEMNGSKLGRRAKPEGALQNNDGLYDPDCDESGLFKAKQCNGTSMCWCVNTAGVRRTDKDTEITCSERVRTYWIIIELKHKAREKPYDSKSLRTALQKEITTRYQLDPKFITSILYENNVITIDLVQNSSQKTQNDVDIADVAYYFEKDVKGESLFHSKKMDLTVNGEQLDLDPGQTLIYYVDEKAPEFSMQGLK",activation of TACE,TACE,induced
same,RUNX2 transcript level,RUNX2,increased
same,STAT3 phosphorylation,STAT3 (Tyr705),stimulates
